According to patent US20230091315A1 (CISBIO BIOASSAYS, published 2023):

Tests used:
[1] = molecular target: T1, human Gαq fused in its N-terminal part with the tags Twin-Strep-tag and FLAG, overexpressed in HEK293 cells (human, UniProt P50148 1-359); assay: HTRF on HEK293 cells overexpressing the TST-Flag-tagged Gα: antibody-d2 (10 nM) + anti-Twin-Strep-tag-Lumi4 Tb, in buffer, GDP 10 µM or GTPγS 10 µM
T1 construct: not shown: N-terminal Twin-Strep-tag and FLAG tags
T1 sequence (looked up): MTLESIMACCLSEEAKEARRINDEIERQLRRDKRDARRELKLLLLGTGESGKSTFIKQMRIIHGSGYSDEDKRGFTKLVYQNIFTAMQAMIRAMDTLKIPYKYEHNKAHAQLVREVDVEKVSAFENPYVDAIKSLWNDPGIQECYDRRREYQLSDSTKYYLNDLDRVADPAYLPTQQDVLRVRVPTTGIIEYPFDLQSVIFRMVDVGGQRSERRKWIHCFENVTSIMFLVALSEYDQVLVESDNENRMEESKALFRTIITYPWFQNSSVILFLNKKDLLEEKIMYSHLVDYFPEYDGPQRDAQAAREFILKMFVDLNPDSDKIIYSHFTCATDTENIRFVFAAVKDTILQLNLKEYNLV

[2] = molecular target: T2, human Gα12 fused in its N-terminal part with the tags Twin-Strep-tag and FLAG, overexpressed in HEK293 cells (human, UniProt Q03113 1-381); assay: as above
T2 construct: not shown: N-terminal Twin-Strep-tag and FLAG tags
T2 sequence (looked up): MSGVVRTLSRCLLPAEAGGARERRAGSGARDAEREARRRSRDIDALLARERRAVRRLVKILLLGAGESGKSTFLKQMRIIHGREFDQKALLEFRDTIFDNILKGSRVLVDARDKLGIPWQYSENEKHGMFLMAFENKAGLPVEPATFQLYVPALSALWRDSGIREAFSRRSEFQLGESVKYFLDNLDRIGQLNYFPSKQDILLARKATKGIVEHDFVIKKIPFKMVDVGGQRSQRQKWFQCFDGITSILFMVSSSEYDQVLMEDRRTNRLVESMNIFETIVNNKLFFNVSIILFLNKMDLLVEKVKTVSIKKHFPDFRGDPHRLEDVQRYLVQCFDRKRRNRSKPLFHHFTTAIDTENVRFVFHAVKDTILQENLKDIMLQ

[3] = molecular target: T3, human Gα13 fused in its N-terminal part with the tags Twin-Strep-tag and FLAG, overexpressed in HEK293 cells (human, UniProt Q14344 1-377); assay: as above
T3 construct: not shown: N-terminal Twin-Strep-tag and FLAG tags
T3 sequence (looked up): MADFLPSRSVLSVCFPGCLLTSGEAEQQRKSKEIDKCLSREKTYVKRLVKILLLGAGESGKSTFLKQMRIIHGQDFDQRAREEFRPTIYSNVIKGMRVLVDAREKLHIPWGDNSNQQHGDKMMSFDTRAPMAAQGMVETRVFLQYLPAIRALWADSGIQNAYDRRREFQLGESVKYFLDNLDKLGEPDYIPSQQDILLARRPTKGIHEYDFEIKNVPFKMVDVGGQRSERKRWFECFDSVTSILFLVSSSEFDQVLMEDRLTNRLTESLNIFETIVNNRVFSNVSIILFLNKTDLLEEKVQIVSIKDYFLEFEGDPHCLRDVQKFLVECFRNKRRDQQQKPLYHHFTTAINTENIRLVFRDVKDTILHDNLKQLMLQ

[4] = molecular target: T4, human Gαi2 fused in its N-terminal part with the tags Twin-Strep-tag and FLAG, overexpressed in HEK293 cells (human, UniProt P04899 1-355); assay: HTRF on HEK293 cells overexpressing the TST-Flag-tagged Gα: antibody-d2 (10 nM) + anti-Twin-Strep-tag-Lumi4 Tb (0.5 nM), in buffer, GDP 10 µM or GTPγS 10 µM
T4 construct: not shown: N-terminal Twin-Strep-tag and FLAG tags
T4 sequence (P04899 whole entry, the tested form may be a part): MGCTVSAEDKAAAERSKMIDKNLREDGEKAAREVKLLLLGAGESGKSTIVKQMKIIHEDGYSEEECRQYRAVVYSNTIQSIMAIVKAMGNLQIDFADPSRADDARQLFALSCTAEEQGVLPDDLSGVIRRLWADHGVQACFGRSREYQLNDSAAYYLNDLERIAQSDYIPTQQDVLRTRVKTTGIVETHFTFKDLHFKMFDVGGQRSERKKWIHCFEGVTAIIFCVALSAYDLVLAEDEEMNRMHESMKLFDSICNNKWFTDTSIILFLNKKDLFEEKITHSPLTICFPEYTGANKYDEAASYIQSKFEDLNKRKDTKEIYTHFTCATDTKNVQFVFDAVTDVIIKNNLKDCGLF

[5] = molecular target: T5, human Gαi3 fused in its N-terminal part with the tags Twin-Strep-tag and FLAG, overexpressed in HEK293 cells (human, UniProt P08754 1-354); assay: as above
T5 construct: not shown: N-terminal Twin-Strep-tag and FLAG tags
T5 sequence (P08754 whole entry, the tested form may be a part): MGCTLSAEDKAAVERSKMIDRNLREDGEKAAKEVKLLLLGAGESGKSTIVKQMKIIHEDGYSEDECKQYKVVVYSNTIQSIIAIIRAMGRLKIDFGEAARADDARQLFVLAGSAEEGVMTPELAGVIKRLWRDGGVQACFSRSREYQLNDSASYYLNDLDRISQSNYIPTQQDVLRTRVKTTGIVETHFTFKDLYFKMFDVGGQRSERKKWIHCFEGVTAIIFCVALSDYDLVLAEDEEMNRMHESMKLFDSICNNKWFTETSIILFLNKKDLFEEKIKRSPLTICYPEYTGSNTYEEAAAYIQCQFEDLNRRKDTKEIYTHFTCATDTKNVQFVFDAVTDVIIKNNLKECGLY

[6] = molecular target: T6, human Gαz fused in its N-terminal part with the tags Twin-Strep-tag and FLAG, overexpressed in HEK293 cells (human, UniProt P19086 1-355); assay: as above
T6 construct: not shown: N-terminal Twin-Strep-tag and FLAG tags
T6 sequence (P19086 whole entry, the tested form may be a part): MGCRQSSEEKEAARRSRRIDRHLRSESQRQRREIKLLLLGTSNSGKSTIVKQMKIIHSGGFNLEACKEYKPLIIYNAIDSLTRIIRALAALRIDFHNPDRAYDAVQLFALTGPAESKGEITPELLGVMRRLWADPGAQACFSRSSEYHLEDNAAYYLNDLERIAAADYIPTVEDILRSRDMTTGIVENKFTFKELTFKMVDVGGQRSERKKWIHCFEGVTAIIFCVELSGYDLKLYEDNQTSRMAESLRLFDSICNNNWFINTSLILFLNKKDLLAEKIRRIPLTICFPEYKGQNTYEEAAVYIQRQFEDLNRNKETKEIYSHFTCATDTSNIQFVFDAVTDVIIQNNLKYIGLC

B1: antibody DSV36S (antibody, V domains shown)
VH: EVQLQQSGAELVRPGALVKLSCKASGFNIKDYYMHWVKQRPEQGLEWIGWIDPENGNTIYDPKFQGKASITADTSSNTAYLQLSSLTSEDTAVYYCTRGGGYYSDWYFDVWGAGTTVTVSS
VL: QIVLTQSPAIMSASPGEKVTMTCSASSSVSYMHWYQQKSGTSPKRWIYDTSKLASGVPARFSGSGSGTSYSLTISSMEAEDAATYYCQQWSSNPPITFGAGTKLELK
notes: Used unlabeled or labeled with d2 (acceptor) or Lumi4Tb (donor); also called DSV36S-d2; DSV36S-Lumi4Tb
- binding result [1]: no binding (tested: 10 nM)
- binding result [2]: no binding (tested: 10 nM)
- binding result [3]: no binding (tested: 10 nM)
- binding result [4]: binds
- binding result [5]: binds
- binding result [6]: binds
